One block for each binder: values may come before it.
Assays:
[1] = biological target: T1, P8A; assay: two-hybrid library CCNG1;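 further: natural log of median RNA to DNA barcode read ratio; higher means stronger binding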
T1 chain: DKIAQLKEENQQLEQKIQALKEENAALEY

[2] = biological target: T2, P7A; assay: two-hybrid library CCNG1;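 further: natural log of median RNA to DNA barcode read ratio; higher means stronger binding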
T2 chain: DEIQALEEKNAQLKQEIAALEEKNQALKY

[3] = biological target: T3, P9A; assay: two-hybrid library CCNG1;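 further: natural log of median RNA to DNA barcode read ratio; higher means stronger binding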
T3 chain: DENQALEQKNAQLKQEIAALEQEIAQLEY

[4] = biological target: T4, P6A; assay: two-hybrid library CCNG1; settings: mean of both orientations;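 further: natural log of median RNA to DNA barcode read ratio; higher means stronger binding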
T4 chain: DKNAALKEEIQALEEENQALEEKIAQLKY

[5] = biological target: T5, P5A; assay: two-hybrid library CCNG1
T5 chain: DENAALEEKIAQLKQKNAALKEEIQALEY

[6] = biological target: T6, P7; assay: two-hybrid library CC1; settings: mean of both orientations
T6 chain: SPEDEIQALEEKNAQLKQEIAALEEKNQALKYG

[7] = biological target: T7, P8; assay: two-hybrid library CC1; settings: mean of both orientations
T7 chain: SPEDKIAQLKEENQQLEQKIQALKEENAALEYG

[8] = biological target: T8, P5SC2; assay: two-hybrid library CC1; settings: mean of both orientations
T8 chain: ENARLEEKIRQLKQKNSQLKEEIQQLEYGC

[9] = biological target: T9, P5mS; assay: two-hybrid library CC1; settings: mean of both orientations
T9 chain: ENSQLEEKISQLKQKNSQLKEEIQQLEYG

[10] = biological target: T10, P6SC2; assay: two-hybrid library CC1; settings: mean of both orientations
T10 chain: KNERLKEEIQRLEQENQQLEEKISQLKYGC

[11] = biological target: T11, P6; assay: two-hybrid library CC1; settings: mean of both orientations
T11 chain: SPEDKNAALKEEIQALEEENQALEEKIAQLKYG

[12] = biological target: T12, P6SC1; assay: two-hybrid library CC1; settings: mean of both orientations
T12 chain: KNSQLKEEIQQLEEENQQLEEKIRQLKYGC

[13] = biological target: T13, P7mS; assay: two-hybrid library CC1; settings: mean of both orientations
T13 chain: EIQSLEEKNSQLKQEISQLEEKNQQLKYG

[14] = biological target: T14, P9; assay: two-hybrid library CC1; settings: mean of both orientations
T14 chain: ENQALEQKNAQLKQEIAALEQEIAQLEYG

[15] = biological target: T15, P5SC1; assay: two-hybrid library CC1
T15 chain: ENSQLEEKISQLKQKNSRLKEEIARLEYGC

[16] = biological target: T16, P6mS; assay: two-hybrid library CC1; settings: mean of both orientations
T16 chain: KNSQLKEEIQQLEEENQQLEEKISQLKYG

[17] = biological target: T17, P8mS; assay: two-hybrid library CC1; settings: mean of both orientations
T17 chain: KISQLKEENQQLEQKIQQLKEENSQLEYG

[18] = biological target: T18, P7SHb; assay: two-hybrid library CCNG1
T18 chain: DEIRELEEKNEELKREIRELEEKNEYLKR

[19] = biological target: T19, P9SHb; assay: two-hybrid library CCNG1
T19 chain: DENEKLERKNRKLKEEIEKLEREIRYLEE

[20] = biological target: T20, P6SHb; assay: two-hybrid library CCNG1
T20 chain: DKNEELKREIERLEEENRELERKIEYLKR

[21] = biological target: T21, P8SHb; assay: two-hybrid library CCNG1
T21 chain: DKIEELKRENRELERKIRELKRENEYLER

interaction score [1]: -1.04 | interaction score [2]: -1.31 | interaction score [3]: -1.38 | interaction score [4]: 1.19 | interaction score [5]: -1.41
Binder: DENAALEEKIAQLKQKNAALKEEIQALEY [P5A]

Binder: ENSQLEEKISQLKQKNSRLKEEIARLEYGC [P5SC1]
interaction score [6]: -2.4 | interaction score [7]: -0.893 | interaction score [8]: -2.82 | interaction score [9]: -2.78 | interaction score [10]: 0.373 | interaction score [11]: 0.357 | interaction score [12]: 0.372 | interaction score [13]: -2.67 | interaction score [14]: -2.33 | interaction score [15]: -2.92 | interaction score [16]: 0.307 | interaction score [17]: -2.29

interaction score [18]: 0.946 | interaction score [19]: 0.769 | interaction score [20]: 0.147 | interaction score [21]: 0.342
Binder: DKNEELKREIERLEEENRELERKIEYLKR [P6SHb]
